Reference: US20240158474A1 (SINO BIOLOGICAL, published 2024)

Legend:
Assay in all cases: indirect ELISA, VLP coated at 2 µg/mL, antibody 10 ng/mL, HRP goat anti-rabbit Fc
HPV56 VLP protein = biological target: T1, HPV56 VLP protein (human papillomavirus type 56, UniProt P36743 36-507)
T1 construct: Complete VLP protein; no limits of the construct printed, whole entry named; also called HPV56L1
T1 sequence: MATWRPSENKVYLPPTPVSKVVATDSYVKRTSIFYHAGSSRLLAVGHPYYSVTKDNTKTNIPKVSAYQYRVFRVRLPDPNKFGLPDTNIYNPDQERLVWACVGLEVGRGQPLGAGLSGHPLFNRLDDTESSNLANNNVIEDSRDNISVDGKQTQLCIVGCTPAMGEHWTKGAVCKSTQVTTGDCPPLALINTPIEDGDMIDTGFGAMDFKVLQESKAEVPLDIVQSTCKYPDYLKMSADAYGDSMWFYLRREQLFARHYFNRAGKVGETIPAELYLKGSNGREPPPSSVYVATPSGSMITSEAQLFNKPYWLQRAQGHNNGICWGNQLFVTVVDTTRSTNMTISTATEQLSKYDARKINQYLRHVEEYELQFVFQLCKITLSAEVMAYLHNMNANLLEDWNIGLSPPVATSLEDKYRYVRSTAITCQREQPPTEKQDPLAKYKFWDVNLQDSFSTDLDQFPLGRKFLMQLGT

HPV33 VLP protein = biological target: T2, HPV33 VLP protein (human papillomavirus type 33, UniProt P06416 1-499)
T2 construct: Complete VLP protein; no limits of the construct printed, whole entry named; also called HPV33L1
T2 sequence: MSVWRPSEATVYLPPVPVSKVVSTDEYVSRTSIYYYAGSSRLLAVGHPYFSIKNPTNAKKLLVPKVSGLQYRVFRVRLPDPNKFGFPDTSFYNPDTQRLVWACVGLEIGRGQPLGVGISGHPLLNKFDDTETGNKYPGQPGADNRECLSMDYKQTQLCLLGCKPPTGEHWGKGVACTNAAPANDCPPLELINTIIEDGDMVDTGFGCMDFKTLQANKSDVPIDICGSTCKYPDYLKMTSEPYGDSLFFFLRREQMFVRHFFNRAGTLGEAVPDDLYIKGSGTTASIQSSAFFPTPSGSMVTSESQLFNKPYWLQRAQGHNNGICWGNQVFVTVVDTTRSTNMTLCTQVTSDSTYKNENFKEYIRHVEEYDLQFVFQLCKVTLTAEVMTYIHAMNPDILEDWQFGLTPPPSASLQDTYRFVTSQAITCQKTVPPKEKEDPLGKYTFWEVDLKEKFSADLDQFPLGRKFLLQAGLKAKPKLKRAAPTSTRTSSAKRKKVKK

HPV31 VLP protein = biological target: T3, HPV31 VLP protein (human papillomavirus type 31; human …, UniProt P17388 1-475; P06416 474-499)
T3 construct: range 1-475;range 474-499; Complete VLP protein used as coating protein; also called P31SHELL(1-475Y)+HPV33L1(474K-499K)
T3 sequence: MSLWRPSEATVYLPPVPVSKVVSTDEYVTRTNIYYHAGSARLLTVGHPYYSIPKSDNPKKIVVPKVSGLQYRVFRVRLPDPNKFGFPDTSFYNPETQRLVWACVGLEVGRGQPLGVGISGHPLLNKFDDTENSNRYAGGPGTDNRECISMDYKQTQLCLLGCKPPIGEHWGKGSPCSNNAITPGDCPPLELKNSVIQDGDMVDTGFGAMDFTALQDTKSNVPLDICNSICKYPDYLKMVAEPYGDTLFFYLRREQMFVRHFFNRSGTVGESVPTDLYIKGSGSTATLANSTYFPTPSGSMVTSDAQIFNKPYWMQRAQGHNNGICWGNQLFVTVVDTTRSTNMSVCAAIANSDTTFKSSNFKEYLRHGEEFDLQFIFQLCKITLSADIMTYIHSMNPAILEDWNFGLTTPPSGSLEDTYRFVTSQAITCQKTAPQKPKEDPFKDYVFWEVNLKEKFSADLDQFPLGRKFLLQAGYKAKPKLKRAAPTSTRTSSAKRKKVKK

HPV39 VLP protein = HPV39 VLP protein (human papillomavirus type 39; human …, UniProt P24838 1-469)
HPV11 VLP protein = biological target: T4, HPV11 VLP protein (human papillomavirus type 11; human …, UniProt P04012 1-470; P06416 474-499)
T4 construct: range 1-470;range 474-499; Complete VLP protein used as coating protein
T4 sequence: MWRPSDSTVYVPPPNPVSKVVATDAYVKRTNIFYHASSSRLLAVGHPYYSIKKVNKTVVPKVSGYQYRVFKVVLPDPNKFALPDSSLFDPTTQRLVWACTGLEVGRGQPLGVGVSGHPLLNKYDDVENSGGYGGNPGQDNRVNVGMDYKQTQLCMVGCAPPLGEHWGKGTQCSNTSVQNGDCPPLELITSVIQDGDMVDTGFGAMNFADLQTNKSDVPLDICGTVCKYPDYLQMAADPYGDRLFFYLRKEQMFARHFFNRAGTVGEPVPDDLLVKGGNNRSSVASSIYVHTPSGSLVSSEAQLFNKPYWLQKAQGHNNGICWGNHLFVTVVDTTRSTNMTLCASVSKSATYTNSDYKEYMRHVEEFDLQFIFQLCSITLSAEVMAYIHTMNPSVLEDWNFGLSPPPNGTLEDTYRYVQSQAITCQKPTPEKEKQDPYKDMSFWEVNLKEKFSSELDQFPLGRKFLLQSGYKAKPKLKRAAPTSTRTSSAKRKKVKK

HPV59 VLP protein = biological target: T5, HPV59 VLP protein (human papillomavirus type 59)
T5 construct: Complete VLP protein; no limits of the construct printed, whole entry named; also called HPV59L1

B1: monoclonal antibody HPV6-R003 (antibody, V domains shown)
VH: QQQLEESGGGLVKPGGTLTLTCKASGIDLSNYYMCWVRQAPGKGLEWIGCIYTGSGRTYYASWAKGRFTISKASSTTVTLQMTSLTAADTATYFCARDYLGWRASNIWGPGTLVTVSS
VL: ELVMTQTPSSVSAAVGGTVTINCQASQSVYSNNLVWYQQKPGQPPKLLIYGASTLASGVPSRFKGSGSGTQFTLTISDVVCDDAATYYCGGYVSDSTDGTAFGGGTEVVVKG
notes: here built from variable plus constant region so that the signal peptides are left out; In the sandwich ELISA the same antibody is used as coating antibody and, labelled with horseradish peroxidase, as detection antibody; also called anti-HPV6 L1 protein antibody
- OD450-blank (HPV56 VLP protein): 0.042 OD450
- OD450-blank (HPV33 VLP protein): 0.047 OD450
- OD450-blank (HPV31 VLP protein): 0.047 OD450
- OD450-blank (HPV39 VLP protein): 0.047 OD450
- OD450-blank (HPV11 VLP protein): 0.053 OD450
- OD450-blank (HPV59 VLP protein): 0.041 OD450
